Experiments:
[1] = target: T1, human CTLA-4 (human, UniProt P16410 36-161, limits assumed); assay: blocking ELISA: antibody pre-incubated with human CTLA-4, binding of CTLA-4 to coated CD80 detected
T1 construct: Construct not described (no limits, tag or fusion partner stated); also called huCTLA-4; CD152

[2] = target: T1, human CTLA-4; assay: cell-based or functional assay
[3] = target: T2, mouse CTLA-4 (mouse, UniProt P09793 36-161, limits assumed); assay: affinity ELISA, antibody coated, mouse CTLA-4 titrated; 2C8 IgG1 with LALA mutation (L234A, L235A)
T2 construct: construct not described; also called murine CTLA-4; the mouse protein
Source text: (§1) The “LALA” mutation refers to mutation of leucine residues at positions 234 and […] of the of the Fc region to alanine (i.e. L234A, L235A); this mutation is known to weaken interaction between Fc and Fc-γR, and therefore to prevent ADCC activity (see e.g. Hezareh et al., J Virol (2001) 75(24):12161-12168).

[4] = target: T2, mouse CTLA-4; assay: avidity ELISA, mouse CTLA-4 coated, antibody titrated
Experimental: (§2) The response curve was plotted (see FIG. 10), and EC50 was calculated.

[5] = target: T3, Human CD28 conjugated to human Fc (human, UniProt P10747 19-152); assay: ELISA, human CD28-Fc coated, antibody titrated
T3 construct: not shown: human Fc

[6] = target: T1, human CTLA-4; assay: ELISA, human CTLA-4 coated, Fab titrated
[7] = target: T2, mouse CTLA-4; assay: affinity ELISA, antibody coated, mouse CTLA-4 titrated; 2C8 IgG4
Source text: as §1

[8] = target: T2, mouse CTLA-4; assay: affinity ELISA, antibody coated, mouse CTLA-4 titrated; 2C8 IgG1
Source text: as §1

[9] = target: T4, mouse CTLA-4 expressed on HEK-293.6E cells (mouse, UniProt P09793 36-223); assay: flow cytometry on HEK-293.6E cells transfected with mouse CTLA-4
T4 construct: whole, on cells; also called cell surface-expressed mouse CTLA-4

[10] = target: T3, Human CD28 conjugated to human Fc; assay: ELISA, human CD28-human Fc coated, antibody titrated
[11] = target: T5, Cynomolgus/Rhesus CTLA-4 (cynomolgus/rhesus); assay: ELISA, antibody coated, Cynomolgus/Rhesus CTLA-4 titrated
T5 construct: Printed as one protein 'Cynomolgus/Rhesus CTLA-4'

[12] = target: T1, human CTLA-4; assay: SPR, antibody immobilised on chip, human CTLA-4 flowed over
[13] = target: T6, human CTLA-4 expressed on HEK-293.6E cells (human, UniProt P16410 36-223); assay: flow cytometry on HEK-293.6E cells transfected with human CTLA-4
T6 construct: whole, on cells; also called cell surface-expressed human CTLA-4
T6 sequence (P16410 36-223): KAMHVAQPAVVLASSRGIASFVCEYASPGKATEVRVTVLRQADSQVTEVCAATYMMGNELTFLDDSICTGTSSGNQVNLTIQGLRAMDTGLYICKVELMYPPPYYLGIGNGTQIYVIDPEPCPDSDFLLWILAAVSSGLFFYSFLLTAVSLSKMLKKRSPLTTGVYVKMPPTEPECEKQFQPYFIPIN

[14] = target: T1, human CTLA-4; assay: affinity ELISA, antibody coated, human CTLA-4 titrated
[15] = target: T1, human CTLA-4; assay: avidity ELISA, human CTLA-4 coated, antibody titrated
Experimental: as §2

[16] = target: T2, mouse CTLA-4; assay: affinity ELISA, antibody coated, mouse CTLA-4 titrated; 2C8_gI IgG1
Source text: as §1

T1 sequence (P16410 36-161 limits assumed): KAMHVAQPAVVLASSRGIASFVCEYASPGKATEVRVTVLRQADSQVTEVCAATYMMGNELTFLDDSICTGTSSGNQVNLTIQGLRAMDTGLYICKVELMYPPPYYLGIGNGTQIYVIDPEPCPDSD

B1: L3D10 (commercial mouse anti-human CTLA-4 IgG1) (antibody, V domains shown)
VH: QVQLKESGPGLVAPSQSLSITCTVSGFSLTSYGLSWVRQPPGKGLEWLGVIWYDGNTNFHSALISRLTISKDNSKSQVFLELNSLQTDDTATYYCAKTEGHYYGSNYGYYALDYWGQGTSVTVSS
VL: DIQMTQSPASLSVSVGETVTITCRASENIYSNLAWYQQKQGKSPQLLVYAATNLADGVPSRFSGSGSGTQYSLKINSLQSEDFGTYFCQHLWGTPYTFGGGTKLEIK
IC50 (read off the curve) [1]: ~1 nM

B2: 2C8 IgG1 with LALA mutation (antibody, V domains shown)
VH: QVQLQQSGPGLVKPSQTLSLTCAISGDTVSSNTAAWNWIRQSPSRGLEWLGRTYYRSKWYSDYGLSVKSRMTINADTSKNQVSLHLNSVTPEDTAVYYCAREGSGGTLIYWGQGTLVTVSS
VL: DIQLTQSPSSVSASVGDRVTITCRATQGISSWLAWYQQKPGKAPKLLIYAASSLQSGVPSRFSGSGSGTEFTLTISSLQPEDFATYYCQQANTLPLFTFGPGTKVDIK
notes: also called 2C8 with LALA mutation; 2C8 with the mutation
EC50, T cell reactivation assay (IL-2 secretion by Jurkat T cells) [2]: 0.7 to 1.2 nM
EC50 [3]: 5.1 nM
EC50 [4]: 8 nM

B3: anti-CTLA-4 antibody clone 2C8, Fab (Fab, V domains shown)
VH: QVQLQQSGPGLVKPSQTLSLTCAISGDTVSSNTAAWNWIRQSPSRGLEWLGRTYYRSKWYSDYGLSVKSRMTINADTSKNQVSLHLNSVTPEDTAVYYCAREGSGGTLIYWGQGTLVTVSS
VL: DIQLTQSPSSVSASVGDRVTITCRATQGISSWLAWYQQKPGKAPKLLIYAASSLQSGVPSRFSGSGSGTEFTLTISSLQPEDFATYYCQQANTLPLFTFGPGTKVDIK
notes: Fab from a human antibody phage display library
binding result [5]: no binding (tested: 1000 nM)
IC50 (read off the curve) [1]: ~5 nM
EC50 (read off the curve) [6]: ~1 nM

B4: 2C8 IgG4 (antibody, V domains shown)
VH: QVQLQQSGPGLVKPSQTLSLTCAISGDTVSSNTAAWNWIRQSPSRGLEWLGRTYYRSKWYSDYGLSVKSRMTINADTSKNQVSLHLNSVTPEDTAVYYCAREGSGGTLIYWGQGTLVTVSS
VL: DIQLTQSPSSVSASVGDRVTITCRATQGISSWLAWYQQKPGKAPKLLIYAASSLQSGVPSRFSGSGSGTEFTLTISSLQPEDFATYYCQQANTLPLFTFGPGTKVDIK
notes: IgG4 format; also called IgG4 version of 2C8
EC50 [7]: 7 nM
EC50 [4]: 20.9 nM

B5: anti-CTLA-4 antibody clone 2C8, human IgG1 (antibody, V domains shown)
VH: QVQLQQSGPGLVKPSQTLSLTCAISGDTVSSNTAAWNWIRQSPSRGLEWLGRTYYRSKWYSDYGLSVKSRMTINADTSKNQVSLHLNSVTPEDTAVYYCAREGSGGTLIYWGQGTLVTVSS
VL: DIQLTQSPSSVSASVGDRVTITCRATQGISSWLAWYQQKPGKAPKLLIYAASSLQSGVPSRFSGSGSGTEFTLTISSLQPEDFATYYCQQANTLPLFTFGPGTKVDIK
notes: also called 2C8 IgG; 2C8 IgG1
EC50 [8]: 9.6 nM
EC50 (read off the curve) [9]: ~6 nM
binding result [10]: no binding
EC50 (read off the curve) [11]: ~0.3 nM
Kd [12]: 9.6 nM
EC50 (read off the curve) [13]: ~4 nM
EC50 [4]: 4.9 nM
EC50 [14]: 5 nM
EC50 [15]: 0.0636 nM

B6: anti-CTLA-4 antibody clone 2C8_gI, IgG1 (antibody, V domains shown)
VH: QVQLQQSGPGLVKPSQTLSLTCAISGDSVSSNTAAWNWIRQSPSRGLEWLGRTYYRSKWYSDYGLSVKSRITINPDTSKNQFSLQLNSVTPEDTAVYYCAREGSGGTLIYWGQGTLVTVSS
VL: DIQMTQSPSSVSASVGDRVTITCRATQGISSWLAWYQQKPGKAPKLLIYAASSLQSGVPSRFSGSGSGTDFTLTISSLQPEDFATYYCQQANTLPLFTFGPGTKVDIK
notes: IgG1; also called germline version of the antibody
EC50 [16]: 23.5 nM
EC50 [4]: 77.1 nM

Source: patent publication US20170226211A1 (AGENCY OR SCIENCE TECHNOLOGY AND RESEARCH, published 2017)
